Sequences and labels used below:
B1: Fab M556-2 (Fab, V domains shown)
VH: LEQSGAEVKKPGASVKVSCQASGYRFSNFTVHWVRQAPGQRFEWMGWINPYNGNKEFSAKFQDRVTFTADTSANTAYMELRSLRSADTAVYYCARVGEWGWEQFRFDNYYMDVWGKGTTVIVSS
VL: ELTQSPGTLSLSPGERATFSCRSSHSIRSRRVAWYQHKPGQAPRLVIHGVSNRASGISDRFSGSGSGTDFTLTITRVEPEDFALYYCQVYGASSYTFGQGTKLERKR
B2: Fab M556-3 (Fab, V domains shown)
VH: B1 VH with Q103M, F106Y
VL: B1 VL
B3: Fab QA10 (Fab, V domains shown)
VH: B1 VH with E102D, Q103D, F104S, R105P, F106Q
VL: B1 VL with S26Q, I27L, R28D, S29G, R30S, V89T, A92R, S93G
B4: Fab QA11 (Fab, V domains shown)
VH: B1 VH with E102D, Q103D, F104S, R105P, F106Q
VL: B1 VL with S26Q, I27L, R28D, S29G, R30S, V89T, A92R, S93G, S94H
notes: also called LH (its light chain)
B5: Fab QA1 (Fab, V domains shown)
VH: B1 VH with E102D, Q103D, F104S, R105P, F106Q
VL: B1 VL with S26Q, I27L, R28D, S29G, R30S, A92W, S94Q
B6: Fab QA8 (Fab, V domains shown)
VH: B1 VH with E102D, Q103D, F104S, R105P, F106Q
VL: B1 VL with S26Q, I27L, R28D, S29G, R30S, V89Q, A92D, S94L
B7: Fab QA4 (Fab, V domains shown)
VH: B1 VH with E102D, Q103D, F104S, R105P, F106Q
VL: B1 VL with S26Q, I27L, R28D, S29G, R30S, V89S, A92G, S93R, S94D
B8: Fab QA2 (Fab, V domains shown)
VH: B1 VH with E102D, Q103D, F104S, R105P, F106Q
VL: B1 VL with S26Q, I27L, R28D, S29G, R30S, V89L, A92R, S93G, S94N
B9: Fab QA5 (Fab, V domains shown)
VH: B1 VH with E102D, Q103D, F104S, R105P, F106Q
VL: B1 VL with S26Q, I27L, R28D, S29G, R30S, V89T, A92W, S94G
B10: Fab QA12 (Fab, V domains shown)
VH: B1 VH with E102D, Q103D, F104S, R105P, F106Q
VL: B1 VL with S26Q, I27L, R28D, S29G, R30S, V89T, A92R, S93G, S94I
B11: Fab QA9 (Fab, V domains shown)
VH: B1 VH with E102D, Q103D, F104S, R105P, F106Q
VL: B1 VL with S26Q, I27L, R28D, S29G, R30S, V89M, A92G, S93F, S94T
B12: composite Fab H103/L42-4 (Fab, V domains shown)
VH: B1 VH with N28H, V31L, M45H, E102H, F104R, F106Y
VL: B1 VL with S26Q, I27L, R28D, S29G, R30S, V89Q, A92W, S93P, S94F
B13: composite Fab H33/L42-17 (Fab, V domains shown)
VH: B1 VH with N28H, V31L, M45H, Q103M, F106Y
VL: B1 VL with S26Q, I27L, R28D, S29G, R30S, V89Q, A92W, S93P, S94F
B14: composite Fab H101/L42-1 (Fab, V domains shown)
VH: B1 VH with N28H, M45H, E102H, F104R, F106Y
VL: B1 VL with S26Q, I27L, R28D, S29G, R30S, V89Q, A92W, S93P, S94F
B15: composite Fab H101/L42-16 (Fab, V domains shown)
VH: B1 VH with N28H, M45H, E102H, F104R, F106Y
VL: B1 VL with S26Q, I27L, R28D, S29G, R30S, V89Q, A92W, S93P, S94F
B16: composite Fab H33/LH-11 (Fab, V domains shown)
VH: B1 VH with N28H, V31L, M45H, Q103M, F106Y
VL: B1 VL with S26Q, I27L, R28D, S29G, R30S, V89T, A92R, S93G, S94H
B17: composite Fab 4H/L42-1 (Fab, V domains shown)
VH: B1 VH with T30V, V31I, E98P, W99Y, G100S, E102D, Q103D, F104S, R105P, F106Q
VL: B1 VL with S26Q, I27L, R28D, S29G, R30S, V89Q, A92W, S93P, S94F
B18: composite Fab H101/4L-1 (Fab, V domains shown)
VH: B1 VH with N28H, M45H, E102H, F104R, F106Y
VL: B1 VL
B19: composite Fab H31/4L-14 (Fab, V domains shown)
VH: B1 VH with N28H, M45H, Q103M, F106Y
VL: B1 VL

Here are results for 19 molecules from patent publication US6395275 (Scripps Research, dated 2002).

Where a chain is given by its changes, count along the chain named.
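Wherever Ka is given: fab fragments flowed at 0.5 to 10 ug/ml over immobilized gp120, resonance units tracked during association and dissociation, equilibrium constants derived from the rate constants.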

One assay has as its target T1, recombinant gp120 of HIV-1 strain IIIb (HIV-1 strain IIIb, UniProt P04578 33-511).
T1 construct: domain: gp120; also called IIIb-derived gp120; gp 120 (IIIB strain)
The experiment in a line: SPR BIAcore, gp120 on chip. (In general: In SPR one partner is held on a chip, and binding of the other changes the refractive index at the surface.)
Description: (§1) As the mass of the gold chips increases due to the binding of the Fabs to the ligand, the refractive index of the chips increases indicating a coordinate increase in the increase of the mass. Measurements of the "on" rate are made in addition to the "off" rates, the latter of which occurs as the Fabs begin to dissociate from the ligand and the mass coordinately decreases, thereby allowing a measurement of the change of the refractive index. Briefly, the sensor chip was activated for immobilization with N-hydroxysuccinimide an N-ethyl-N'-(3-diethyl aminopropyl) carbodiimide. The proteins, MN-derived or IIIb-derived gp120, were coupled to the surface by injection of 50 ul of a 50 ug/ml sample. Excess activated esters were quenched with 15 ul ethanolamine, 1 M pH 8.5. Typically, 4000 resonance units were immobilized. Binding of Fab fragments to immobilized gp120 was studied by injection of Fab in a range of concentrations (0.5 to 10 ug/ml) at a flow rate of 5 ul/minute. The association was monitored as the increase in resonance units per unit time. Dissociation measurements were acquired following the end of the association phase but with a flow rate of 50 ul/minute. The binding surface was regenerated with HCl, 1M NaCl, pH 3 and remained active for 20–40 measurements. […] Equilibrium association and dissociation constants were deduced from the rate constants.
The soluble M556 series Fabs were then analyzed for binding affinity to gp120 (strain IIIB).
In the case of B1, the “Fold Increase of Mutant Kd Compared to MT4 Kd” value (shortened to “Fold Increase”) is 14.3 fold and the Kd was 0.439 nM.
In the same order, the values of B2 are 63 fold and 0.101 nM.

A further assay addresses T1, recombinant gp120 of HIV-1 strain IIIb. The experiment in a line: SPR BIAcore, gp120 on chip. The source holds these as a separate data set.
Description: In the assay, the gp120 glycoprotein, isolated from both MN (AgMed, Cambridge, Mass.) and IIIb (American Bio-Technologies) strains of HIV-1 were coated onto gold chips. […] As the mass of the gold chips increases due to the binding of the Fabs to the ligand, the refractive index of the chips increases indicating a coordinate increase in the increase of the mass. Measurements of the "on" rate are made in addition to the "off" rates, the latter of which occurs as the Fabs begin to dissociate from the ligand and the mass coordinately decreases, thereby allowing a measurement of the change of the refractive index. Briefly, the sensor chip was activated for immobilization with N-hydroxysuccinimide an N-ethyl-N'-(3-diethyl aminopropyl) carbodiimide. The proteins, MN-derived or IIIb-derived gp120, were coupled to the surface by injection of 50 ul of a 50 ug/ml sample. Excess activated esters were quenched with 15 ul ethanolamine, 1 M pH 8.5. Typically, 4000 resonance units were immobilized. Binding of Fab fragments to immobilized gp120 was studied by injection of Fab in a range of concentrations (0.5 to 10 ug/ml) at a flow rate of 5 ul/minute. The association was monitored as the increase in resonance units per unit time. Dissociation measurements were acquired following the end of the association phase but with a flow rate of 50 ul/minute. The binding surface was regenerated with HCl, 1M NaCl, pH 3 and remained active for 20–40 measurements. […] Equilibrium association and dissociation constants were deduced from the rate constants.
Turning to B3, the “Fold Increase” value was 85.9 fold and the Kd stood at 0.074 nM.
In the same order, the values of B4 are 94.4 fold and 0.067 nM.
B5: the “Fold Increase” value turned out to be 12.2 fold and the Kd stood at 0.51 nM.
Turning to B6, the “Fold Increase” value came to 14.3 fold and the Kd was 0.44 nM.
With B7, the “Fold Increase” value was found to be 12.6 fold and the Kd worked out at 0.5 nM.
Consider B8, for which the “Fold Increase” value is 14.9 fold and the Kd is 0.42 nM.
For the molecule B9, the “Fold Increase” value turned out to be 13.7 fold and the Kd amounted to 0.46 nM.
In the same order, the values of B10 are 48.6 fold and 0.13 nM.
Take B11: the “Fold Increase” value came to 10.3 fold and the Kd amounted to 0.61 nM.

For the next assay the target is unchanged. The experiment in a line: SPR BIAcore, gp120 on chip. The source holds these as a separate data set.
For B12, the koff was determined as 9.41e-06 s⁻¹ and the kon amounted to 81800 M⁻¹ s⁻¹.
On to B13, for which the koff was found to be 1.78e-05 s⁻¹ and the kon came to 98400 M⁻¹ s⁻¹.
With B14, the koff came to 1.74e-05 s⁻¹ and the kon is 134000 M⁻¹ s⁻¹.
Turning to B15, the koff was 1.19e-05 s⁻¹ and the kon turned out to be 69100 M⁻¹ s⁻¹.
Consider B16, for which the koff is 5.45e-06 s⁻¹ and the kon amounted to 73200 M⁻¹ s⁻¹.
In the same order, the values of B17 are 0.000615 s⁻¹ and 296000 M⁻¹ s⁻¹.
As to B18, the koff stood at 3.39e-05 s⁻¹ and the association rate constant (kon) worked out at 893000 M⁻¹ s⁻¹.
With B19, the koff came to 3.39e-06 s⁻¹ and the kon turned out to be 153000 M⁻¹ s⁻¹.

For a further assay the target is unchanged. The assay can be described thus: SPR BIAcore, gp120 on chip. This is another data set of the same source.
Description: as §1
The soluble composite Fabs were then analyzed for binding affinity to gp120 strain IIIB.
In the case of B12, the “Fold Increase” value was determined as 55.8 fold, the Ka is 8.88e+09 M⁻¹ and the Kd was determined as 0.113 nM.
In the same order, the values of B13 are 34.4 fold, 5.46e+09 M⁻¹ and 0.183 nM.
As to B14, the “Fold Increase” value came out at 48.5 fold, the Ka is 7.7e+09 M⁻¹ and the Kd was 0.13 nM.
On to B15, for which the “Fold Increase” value is 36.6 fold, the Ka is 5.81e+09 M⁻¹ and the Kd stood at 0.172 nM.
For the molecule B16, the “Fold Increase” value was 85.4 fold, the Ka was 1.36e+10 M⁻¹ and the Kd came to 0.0738 nM.
Turning to B17, the “Fold Increase” value is 3.02 fold, the Ka turned out to be 4.81e+08 M⁻¹ and the Kd worked out at 2.08 nM.
In the case of B18, the “Fold Increase” value was determined as 16.6 fold, the Ka is 2.63e+09 M⁻¹ and the Kd is 0.38 nM.
Take B19: the “Fold Increase” value stood at 284 fold, the Ka came to 4.51e+10 M⁻¹ and the Kd stood at 0.0222 nM.

Another assay has the same target. The experiment in a line: SPR BIAcore, gp120 on chip (summary table).
B1: the Kd was 0.439 nM.
Same read-out and setting: the result for B12 reads 0.113 nM; that for B13, 0.183 nM.
The same measure, in the same setting: the same measure for B14: 0.13 nM; for B15: 0.17 nM.
For the molecule B16, the Kd stood at 0.0738 nM.
On to B3, for which the Kd is 0.074 nM.
On to B4, for which the Kd turned out to be 0.067 nM.
In the case of B5, the Kd is 0.51 nM.
Regarding B6, the Kd is 0.44 nM.
Still for that read-out and setting: the same measure for B7: 0.5 nM; for B8: 0.42 nM; for B18: 0.38 nM.
B19: the Kd worked out at 0.022 nM.
In the case of B2, the Kd was found to be 0.1 nM.
Still for that read-out and setting: the result for B9 reads 0.46 nM.
On the same count and under the same terms, the same measure for B10: 0.13 nM; for B11: 0.61 nM.

A word on the Kd: it is the equilibrium constant for the complex coming apart. Usually koff stands for the rate constant with which the complex falls apart. For orientation: kon means the rate constant with which the complex forms.
